For this assay, the target named is cell surface TrkA on the human erythroleukemic cell line TF-1 (human), P04629. Description: cell-based or functional assay.

Consider 1 molecule from US20170218087A1.

Sequence of cell surface TrkA on the human erythroleukemic cell line TF-1 (human), P04629 (P04629 33-796): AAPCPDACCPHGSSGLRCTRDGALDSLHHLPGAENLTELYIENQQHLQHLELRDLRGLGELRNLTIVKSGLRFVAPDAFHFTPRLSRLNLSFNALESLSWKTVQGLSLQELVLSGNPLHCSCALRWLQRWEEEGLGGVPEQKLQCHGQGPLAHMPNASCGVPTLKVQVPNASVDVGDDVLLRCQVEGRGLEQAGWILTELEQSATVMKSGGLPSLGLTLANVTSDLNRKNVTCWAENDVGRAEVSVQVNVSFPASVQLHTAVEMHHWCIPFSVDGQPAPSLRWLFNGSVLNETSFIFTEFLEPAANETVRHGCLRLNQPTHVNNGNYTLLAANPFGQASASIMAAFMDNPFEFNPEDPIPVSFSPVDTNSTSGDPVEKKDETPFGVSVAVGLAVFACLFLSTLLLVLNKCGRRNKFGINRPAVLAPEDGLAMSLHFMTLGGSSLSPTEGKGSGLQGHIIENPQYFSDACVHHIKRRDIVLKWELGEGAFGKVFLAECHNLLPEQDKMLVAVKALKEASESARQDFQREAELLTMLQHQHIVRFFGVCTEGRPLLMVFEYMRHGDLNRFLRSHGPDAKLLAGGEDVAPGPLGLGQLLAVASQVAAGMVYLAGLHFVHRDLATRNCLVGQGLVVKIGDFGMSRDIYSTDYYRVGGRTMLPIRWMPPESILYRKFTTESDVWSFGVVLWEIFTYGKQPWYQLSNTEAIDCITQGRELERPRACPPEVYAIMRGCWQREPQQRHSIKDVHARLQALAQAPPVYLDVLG

B1: MNAC13 mouse antibody (antibody, mouse IgG1, kappa)
heavy: EVKLVESGGGLVQPGGSLKLSCAASGFTFSTYTMSWARQTPEKRLEWVAYISKGGGSTYYPDTVKGRFTISRDNAKNTLYLQMSSLKSEDTALYYCARGAMYGNDFFYPMDYWGQGTSVTVSSKTTPPSVYPLAPGSAAQTNSMVTLGCLVKGYFPEPVTVTWNSGSLSSGVHTFPAVLESDLYTLSSSVTVPSSPRPSETVTCNVAHPASSTKVDKKIVPRDCGCKPCICTVPEVSSVFIFPPKPKDVLTITLTPKVTCVVVDISKDDPEVQFSWFVDDVEVHTAQTQPREEQFNSTFRSVSELPIMHQDWLNGKEFKCRVNSAAFPAPIEKTISKTKGRPKAPQVYTIPPPKEQMAKDKVSLTCMITDFFPEDITVEWQWNGQPAENYKNTQPIMNTNGSYFVYSKLNVQKSNWEAGNTFTCSVLHEGLHNHHTEKSLSHSPGK
light: QIVLTQSPAIMSASLGEEITLTCSASSSVSYMHWYQQKSGTSPKLLIYTTSNLASGVPSRFSGSGSGTFYSLTISSVEAEDAADYYCHQWSSYPWTFGGGTKLEIKADAAPTVSIFPPSSEQLTSGGASVVCFLNNFYPKDINVKWKIDGSERQNGVLNSWTDQDSKDSTYSMSSTLTLTKDEYERHNSYTCEATHKTSTSPIVKSFNRNEC
Take B1: the TF-1 cell proliferation assay IC50 (NGF-induced) is 0.23 µg/mL.
